Patent US20240392276

Molecular target: eGFP displaying an MBP tag connected with a TEV cleavage site (MBP-TEVsite-eGFP)

B1: His-CBD-TEV protease (protein)
chain: HHHHHHGSGSSGLTTNPGVSAWQVNTAYTAGQLVTYNGKTYKCLQPHTSLAGWEPSNVPALWQLQGSGSSGESLFKGPRDYNPISSSICHLTNESDGHTTSLYGIGFGPFIITNKHLFRRNNGTLVVQSLHGVFKVKDTTTLQQHLVDGRDMIIIRMPKDFPPFPQKLKFREPQREERICLVTTNFQTKSMSSMVSDTSCTFPSGDGIFWKHWIQTKDGQCGSPLVSTRDGFIVGIHSASNFTNTNNYFTSVPKNFMELLTNQEAQQWVSGWRLNADSVLWGGHKVFMSKPEEPFQPVKEATQLMN
digestion on Bis-tris protein gel (protease activity): In the presence of His-CBD-TEV, MBP-TEVsite-eGFP is cleaved into the MBP tag (43 kDa) and eGFP (33 kDa)
